Reference: the supplement of paper PMC10065799, “High-throughput profiling of sequence recognition by tyrosine kinases and SH2 domains using bacterial peptide display” (eLife, 2023)

What was measured:
[1] = target: Grb2 SH2 (UniProt P62993); test: SH2 binding enrichment of the phosphorylated peptide, bacterial display (enrichment ratio); higher = better substrate or ligand; peptides without Tyr show the background
[2] = target: c-Src SH2; test: as above
[3] = target: SHP2-C SH2; test: as above
[4] = target: FGFR1 (UniProt P11362); test: phosphorylation enrichment, bacterial display (enrichment ratio); higher = better substrate or ligand; peptides without Tyr show the background
Sequence of FGFR1 (P11362 whole entry, looked up): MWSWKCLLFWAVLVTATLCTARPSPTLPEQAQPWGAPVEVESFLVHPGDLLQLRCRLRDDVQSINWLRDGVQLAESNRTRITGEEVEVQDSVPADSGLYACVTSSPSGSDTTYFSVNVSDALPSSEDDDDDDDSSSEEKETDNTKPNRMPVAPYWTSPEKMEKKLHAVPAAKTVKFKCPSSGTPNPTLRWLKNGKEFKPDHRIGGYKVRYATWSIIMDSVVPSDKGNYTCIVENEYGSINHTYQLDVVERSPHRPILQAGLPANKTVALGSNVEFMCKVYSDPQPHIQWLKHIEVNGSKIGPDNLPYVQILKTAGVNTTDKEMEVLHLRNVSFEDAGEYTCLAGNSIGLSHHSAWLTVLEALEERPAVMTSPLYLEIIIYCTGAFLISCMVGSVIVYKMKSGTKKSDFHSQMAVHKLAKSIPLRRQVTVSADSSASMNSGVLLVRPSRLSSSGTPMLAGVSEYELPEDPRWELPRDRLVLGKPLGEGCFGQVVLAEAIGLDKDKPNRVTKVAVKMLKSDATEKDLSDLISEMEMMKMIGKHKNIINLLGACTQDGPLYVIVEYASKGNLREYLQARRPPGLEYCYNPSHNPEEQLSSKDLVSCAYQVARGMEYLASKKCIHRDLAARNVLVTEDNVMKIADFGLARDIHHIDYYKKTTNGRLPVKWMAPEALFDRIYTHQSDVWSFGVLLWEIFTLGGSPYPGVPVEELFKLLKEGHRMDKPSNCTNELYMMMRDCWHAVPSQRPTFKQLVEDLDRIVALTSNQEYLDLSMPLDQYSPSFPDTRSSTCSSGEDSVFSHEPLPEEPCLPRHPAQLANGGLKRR

[5] = target: Hck (UniProt P08631); test: as above
Sequence of Hck (P08631 whole entry, looked up): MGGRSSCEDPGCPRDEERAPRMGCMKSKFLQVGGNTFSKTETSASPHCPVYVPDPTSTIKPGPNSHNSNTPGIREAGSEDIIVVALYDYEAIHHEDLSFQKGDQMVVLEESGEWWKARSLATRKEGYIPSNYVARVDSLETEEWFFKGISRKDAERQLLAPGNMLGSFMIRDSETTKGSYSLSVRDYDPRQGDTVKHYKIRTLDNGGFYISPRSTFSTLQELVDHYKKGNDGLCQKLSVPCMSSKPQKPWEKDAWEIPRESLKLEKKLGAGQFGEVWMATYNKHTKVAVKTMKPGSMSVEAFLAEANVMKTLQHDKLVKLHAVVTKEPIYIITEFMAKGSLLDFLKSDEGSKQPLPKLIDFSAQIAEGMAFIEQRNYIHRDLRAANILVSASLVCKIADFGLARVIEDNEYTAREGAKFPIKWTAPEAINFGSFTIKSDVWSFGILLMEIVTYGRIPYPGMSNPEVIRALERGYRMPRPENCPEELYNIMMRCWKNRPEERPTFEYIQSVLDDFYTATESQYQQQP

[6] = target: Fes (UniProt P07332); test: as above
Sequence of Fes (P07332 whole entry, looked up): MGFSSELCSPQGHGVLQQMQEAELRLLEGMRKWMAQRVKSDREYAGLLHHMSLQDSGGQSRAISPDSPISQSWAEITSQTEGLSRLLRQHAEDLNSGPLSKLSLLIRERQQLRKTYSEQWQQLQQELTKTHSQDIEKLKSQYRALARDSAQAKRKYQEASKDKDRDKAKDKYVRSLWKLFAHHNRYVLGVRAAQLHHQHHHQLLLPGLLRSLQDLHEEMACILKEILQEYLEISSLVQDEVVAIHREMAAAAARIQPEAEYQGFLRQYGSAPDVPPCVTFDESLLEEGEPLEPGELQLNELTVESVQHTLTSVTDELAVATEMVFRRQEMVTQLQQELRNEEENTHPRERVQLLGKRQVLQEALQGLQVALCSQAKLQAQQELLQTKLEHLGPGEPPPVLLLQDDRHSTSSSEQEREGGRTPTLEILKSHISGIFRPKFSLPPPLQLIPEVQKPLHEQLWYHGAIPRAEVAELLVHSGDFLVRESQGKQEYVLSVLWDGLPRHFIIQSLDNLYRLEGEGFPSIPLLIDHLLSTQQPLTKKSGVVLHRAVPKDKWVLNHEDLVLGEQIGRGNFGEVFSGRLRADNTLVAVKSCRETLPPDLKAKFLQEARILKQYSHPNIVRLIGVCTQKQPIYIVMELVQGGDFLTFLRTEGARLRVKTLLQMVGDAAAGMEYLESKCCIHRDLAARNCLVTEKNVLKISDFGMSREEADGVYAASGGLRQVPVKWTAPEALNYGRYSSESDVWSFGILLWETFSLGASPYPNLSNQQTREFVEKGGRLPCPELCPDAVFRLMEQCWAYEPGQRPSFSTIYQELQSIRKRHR

[7] = target: Fyn (UniProt P06241); test: as above
[8] = test system: c-Abl (mouse); test: as above
[9] = target: Jak2 (UniProt O60674); test: as above
[10] = test system: c-Src; test: as above
[11] = test system: Fer (mouse); test: as above
[12] = target: EPHB1 (UniProt P54762); test: as above
Sequence of EPHB1 (P54762 whole entry, looked up): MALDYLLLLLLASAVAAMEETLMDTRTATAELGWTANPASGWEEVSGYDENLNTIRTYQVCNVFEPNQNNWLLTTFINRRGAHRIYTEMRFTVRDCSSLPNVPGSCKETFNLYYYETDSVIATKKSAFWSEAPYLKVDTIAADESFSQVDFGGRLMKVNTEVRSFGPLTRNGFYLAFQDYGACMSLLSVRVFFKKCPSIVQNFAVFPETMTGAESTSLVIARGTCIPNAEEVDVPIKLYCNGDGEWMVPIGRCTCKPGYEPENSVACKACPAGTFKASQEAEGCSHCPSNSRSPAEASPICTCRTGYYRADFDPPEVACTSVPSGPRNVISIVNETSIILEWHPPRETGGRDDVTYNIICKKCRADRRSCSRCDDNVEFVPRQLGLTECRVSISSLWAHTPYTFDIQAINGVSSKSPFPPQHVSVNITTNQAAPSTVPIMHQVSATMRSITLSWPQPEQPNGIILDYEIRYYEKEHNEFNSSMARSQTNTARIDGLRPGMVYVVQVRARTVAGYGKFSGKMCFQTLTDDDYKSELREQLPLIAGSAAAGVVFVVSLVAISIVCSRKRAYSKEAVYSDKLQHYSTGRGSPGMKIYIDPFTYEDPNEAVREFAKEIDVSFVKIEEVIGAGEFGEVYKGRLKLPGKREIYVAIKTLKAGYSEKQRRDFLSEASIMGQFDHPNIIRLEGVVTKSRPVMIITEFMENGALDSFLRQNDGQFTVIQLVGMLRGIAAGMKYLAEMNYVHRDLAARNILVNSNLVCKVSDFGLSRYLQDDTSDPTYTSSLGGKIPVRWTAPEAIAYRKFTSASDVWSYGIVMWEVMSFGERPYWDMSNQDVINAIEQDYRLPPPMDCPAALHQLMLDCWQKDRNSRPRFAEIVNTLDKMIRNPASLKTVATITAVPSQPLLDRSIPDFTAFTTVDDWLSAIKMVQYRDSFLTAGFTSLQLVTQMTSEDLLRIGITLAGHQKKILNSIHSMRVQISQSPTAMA

[13] = target: FGFR3 (UniProt P22607); test: as above
Sequence of FGFR3 (P22607 whole entry, looked up): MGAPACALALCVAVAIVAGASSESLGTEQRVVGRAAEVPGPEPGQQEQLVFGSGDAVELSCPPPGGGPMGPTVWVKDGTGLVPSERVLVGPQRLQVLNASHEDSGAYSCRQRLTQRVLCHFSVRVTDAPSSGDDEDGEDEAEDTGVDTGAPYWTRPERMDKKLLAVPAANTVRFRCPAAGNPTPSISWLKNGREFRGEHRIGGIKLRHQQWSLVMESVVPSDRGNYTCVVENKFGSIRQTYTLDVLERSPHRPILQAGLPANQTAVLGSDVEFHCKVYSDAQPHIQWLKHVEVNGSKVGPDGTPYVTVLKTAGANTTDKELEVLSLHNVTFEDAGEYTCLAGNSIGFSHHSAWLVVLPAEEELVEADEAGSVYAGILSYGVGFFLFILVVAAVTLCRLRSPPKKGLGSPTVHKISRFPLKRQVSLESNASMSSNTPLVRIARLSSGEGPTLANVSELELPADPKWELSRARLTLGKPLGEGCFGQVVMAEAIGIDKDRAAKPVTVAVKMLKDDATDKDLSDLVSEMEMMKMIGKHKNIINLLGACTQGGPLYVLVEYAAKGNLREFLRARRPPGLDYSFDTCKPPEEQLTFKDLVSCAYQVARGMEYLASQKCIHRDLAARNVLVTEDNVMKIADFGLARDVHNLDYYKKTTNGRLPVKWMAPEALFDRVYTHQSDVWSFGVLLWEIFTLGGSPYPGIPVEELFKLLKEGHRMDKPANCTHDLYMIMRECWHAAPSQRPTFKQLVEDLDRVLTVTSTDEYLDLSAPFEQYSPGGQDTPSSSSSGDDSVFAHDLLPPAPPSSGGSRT

[14] = target: EPHB2 (UniProt P29323); test: as above
[15] = target: MERTK (UniProt Q12866); test: as above
Sequence of MERTK (Q12866 whole entry, looked up): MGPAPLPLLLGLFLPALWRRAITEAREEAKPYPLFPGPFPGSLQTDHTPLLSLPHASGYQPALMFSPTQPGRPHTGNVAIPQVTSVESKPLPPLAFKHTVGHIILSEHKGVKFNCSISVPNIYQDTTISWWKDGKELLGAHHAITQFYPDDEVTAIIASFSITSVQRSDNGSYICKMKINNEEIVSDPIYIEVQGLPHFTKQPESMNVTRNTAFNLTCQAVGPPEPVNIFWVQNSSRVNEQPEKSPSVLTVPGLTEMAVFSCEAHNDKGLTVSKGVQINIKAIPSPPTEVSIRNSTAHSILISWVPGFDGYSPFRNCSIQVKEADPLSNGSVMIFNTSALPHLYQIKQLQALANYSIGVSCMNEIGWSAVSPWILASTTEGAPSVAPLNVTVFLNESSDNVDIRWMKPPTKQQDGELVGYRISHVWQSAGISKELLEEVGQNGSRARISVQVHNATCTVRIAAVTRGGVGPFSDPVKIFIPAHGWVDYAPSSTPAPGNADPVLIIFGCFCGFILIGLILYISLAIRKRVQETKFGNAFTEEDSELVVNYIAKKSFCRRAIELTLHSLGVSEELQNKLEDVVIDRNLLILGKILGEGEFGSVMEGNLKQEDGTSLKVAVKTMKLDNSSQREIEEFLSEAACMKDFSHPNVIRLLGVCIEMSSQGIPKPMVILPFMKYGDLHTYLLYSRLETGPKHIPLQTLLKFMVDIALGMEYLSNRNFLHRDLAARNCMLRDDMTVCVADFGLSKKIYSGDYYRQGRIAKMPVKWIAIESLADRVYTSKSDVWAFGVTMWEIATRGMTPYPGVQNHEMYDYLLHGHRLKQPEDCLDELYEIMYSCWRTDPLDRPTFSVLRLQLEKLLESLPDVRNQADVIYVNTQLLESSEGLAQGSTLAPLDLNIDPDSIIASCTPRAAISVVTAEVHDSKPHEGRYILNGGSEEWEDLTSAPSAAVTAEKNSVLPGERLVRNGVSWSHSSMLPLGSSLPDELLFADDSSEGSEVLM

[16] = test system: AncSZ; test: as above
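Wherever SH2 binding enrichment of the phosphorylated peptide, bacterial display is given: peptide library displayed on the E. coli surface as eCPX fusions, selected cells deep-sequenced, score is each peptide's frequency after selection divided by its frequency in the input.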
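Wherever phosphorylation enrichment, bacterial display is given: 11-residue human phosphosite peptides and single-mutation variants displayed on the E. coli surface, counted by deep sequencing, each peptide's frequency after selection divided by its frequency in the unselected input library; frequency after pTyr selection over input frequency; kinase dosed for 20-30% of maximal phosphorylation in three min.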

SH2 binding enrichment [1]	SH2 binding enrichment [2]	SH2 binding enrichment [3]	Sequence	phosphorylation enrichment [4]	phosphorylation enrichment [5]	phosphorylation enrichment [6]	phosphorylation enrichment [7]	phosphorylation enrichment [8]	phosphorylation enrichment [9]	phosphorylation enrichment [10]	phosphorylation enrichment [11]	phosphorylation enrichment [12]	phosphorylation enrichment [13]	phosphorylation enrichment [14]	phosphorylation enrichment [15]	phosphorylation enrichment [16]
0.714	0.615	0.891	CDGKEYDPVEA [MAPRE2_Y167_Y162C]	0.594	0.567	1.66	0.598	0.883	1.54	0.649	0.65	0.64	0.721	0.66	0.541	1.36
0.973	0.664	0.647	CDLTDYLMKIL [ACTA1_Y190_R185C]	0.476	0.587	1.7	0.478	0.83	1.13	0.394	0.541	0.791	1.02	0.75	0.416	1.39
0.774	0.64	0.738	CEAIEYLESKQ [BTK_Y511_M509I]	0.574	0.552	1.39	0.485	0.816	1.33	0.549	0.521	0.631	0.835	0.553	0.461	1.29
0.976	0.66	0.728	CEAMEYPESKQ [BTK_Y511_L512P]	0.571	0.572	1.42	0.543	0.952	1.3	0.548	0.705	0.676	0.736	0.735	0.46	1.28
0.843	1.08	0.799	CERFSYYGMKA [SLC15A2_Y60]	3.72	1.16	1.04	0.689	0.737	3.12	1.1	0.558	0.843	2.88	0.611	0.665	1.59
0.825	0.797	0.652	CGADSYEMEED [EGFR_Y316]	0.536	0.705	1.27	0.534	0.827	1.08	0.483	0.533	0.685	0.899	0.72	0.549	1.57
0.904	0.608	0.932	CGTPTCLAPEV [CHEK2_Y390_Y390C]	0.566	0.436	1.1	0.504	0.759	0.816	0.454	0.54	0.545	0.627	0.695	0.491	1.18
0.975	0.742	0.875	CNPLRYPVLMS [OR2T1_Y182]	0.476	0.518	0.913	0.5	0.896	0.758	0.498	0.453	0.549	0.621	0.567	0.428	0.839
0.874	0.938	0.625	CNRADYSKLAS [GNE_Y22_P27S]	0.367	0.376	0.95	0.377	0.453	0.621	0.369	0.398	0.393	0.47	0.572	0.441	1.04
0.937	6.74	4.68	CNTIHYNYMCN [TP53_Y234_T230N]	0.586	0.428	0.865	0.413	0.713	0.799	0.532	0.554	0.575	0.653	0.581	0.521	0.897
0.905	0.705	0.737	CPYNLYAEQLS [HGD_Y40]	0.741	2.39	1.34	3.15	0.936	1.39	6.33	1.36	2.68	0.988	2.18	2.67	1.74
1.19	1.37	1.07	CSGNCYLDIRP [FBN1_Y1535_R1530C]	0.646	0.504	0.646	0.446	0.509	0.514	0.609	0.404	0.452	0.532	0.442	0.49	0.591
1.08	0.777	0.874	CSKRFYQLTKL [AR_Y858_R855K]	0.401	0.424	0.888	0.454	0.587	0.706	0.449	0.492	0.545	0.556	0.44	0.47	0.75
1.15	1.07	1.32	CTTIHNNFMCN [TP53_Y234_Y234N_YF]	0.51	0.517	0.974	0.507	0.593	0.95	0.439	0.558	0.606	0.623	0.591	0.459	0.879
1.38	1	1.51	CTTIHYMFMCN [TP53_Y234_N235M_YF]	0.526	0.552	1.22	0.445	0.673	1.02	0.38	0.555	0.608	0.659	0.668	0.367	1.05
1.23	1.23	1.5	CTTIHYNFKCN [TP53_Y234_M237K_YF]	0.472	0.476	0.75	0.405	0.51	0.545	0.411	0.386	0.381	0.494	0.392	0.425	0.795
